{
  "source": "paper PMC5018458",
  "about": "(Bioorganic & medicinal chemistry letters, 2016)",
  "key": {"M21 human melanoma cells": {"tested_on": "M21 human melanoma cells", "assay": "Cellular efflux in M21 human melanoma cells", "type": "cell-based", "settings": "M21 cells loaded 2 h at 37 °C, then 2 h of incubation in the culture medium"}, "[1]": {"tested_on": "M21 human melanoma-xenografted nude mice", "assay": "Biodistribution in M21 human melanoma-xenografted nude mice", "type": "in vivo"}, "[2]": {"tested_on": "M21 human melanoma xenografts", "assay": "SPECT/CT imaging of M21 human melanoma-xenografted nude mouse", "type": "in vivo", "settings": "about 7.4 MBq iv tail vein, 2 h post-injection"}, "B16/F1 melanoma": {"tested_on": "B16/F1 melanoma", "settings": "2 h post-injection; cited from earlier work"}},
  "data": [
    {"substance": "hydrazinonicotinamide-8-aminooctanoic acid-Nle-c[Asp-His-DPhe-Arg-Trp-Lys]-CONH2 (sidechain bridge or staple) [^99mTc(EDDA)-HYNIC-AocNle-CycMSHhex]", "values": [
      {"measurement": "Activity remained inside the cells (cellular efflux)", "setting": "M21 human melanoma cells", "result": 66, "unit": "%"},
      {"measurement": "Uptake ratio Tumor/kidney", "setting": "[1]; 0.5 h post-injection", "result": 0.40},
      {"measurement": "Uptake ratio Tumor/kidney", "setting": "[1]; 2 h post-injection", "result": 0.71},
      {"measurement": "Tumor uptake blocked by co-injection of non-radioactive NDP-MSH", "setting": "[1]; 2 h post-injection, 10 μg (6.07 nmol) NDP-MSH co-injected", "result": 80, "unit": "%"},
      {"measurement": "Uptake ratio Tumor/kidney", "setting": "[1]; 2 h post-injection, NDP blockade (co-injection of 10 μg NDP-MSH)", "result": 0.17},
      {"measurement": "Uptake ratio Tumor/kidney", "setting": "[1]; 4 h post-injection", "result": 0.95},
      {"measurement": "Uptake ratio Tumor/kidney", "setting": "[1]; 24 h post-injection", "result": 1.13},
      {"measurement": "Intestines, percent injected dose", "setting": "[1]; mouse, in vivo", "result": "1.65±0.73", "unit": "%ID"},
      {"measurement": "Urine, percent injected dose (urinary clearance)", "setting": "[1]; mouse, in vivo", "result": "92.23±1.52", "unit": "%ID"},
      {"measurement": "Visualization of M21 human melanoma xenografts by SPECT/CT", "setting": "[2]", "result": "clearly visualized"},
      {"measurement": "Visualization of B16/F1 melanoma lesions by SPECT/CT", "setting": "B16/F1 melanoma", "result": "clearly visualized"}
    ]}
  ]
}
